Consider 9 molecules from article doi:10.1101/2025.08.19.670962, “Structural basis for binding of RILPL1 to TMEM55B reveals a lysosomal platform for adaptor assembly through a conserved TBM motif” (bioRxiv, 2025).

T1: His-tagged PH domain of OCRL (1-129) (UniProt Q01968 1-129)
T1 construct: OCRL (OCRL1), PH domain, residues 1-129; also called OCRL PH domain; source: E. coli, purified (protocol similar to that of TMEM55B, no ZnCl2 added)
T1 sequence (looked up): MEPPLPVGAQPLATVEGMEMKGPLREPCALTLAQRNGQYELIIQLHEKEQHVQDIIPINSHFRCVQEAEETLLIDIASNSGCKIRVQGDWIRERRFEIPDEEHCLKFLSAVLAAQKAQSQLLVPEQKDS

B1: JIP4 887-897 (peptide)
peptide: TAEEATEATEG
notes: JIP4, residues 887-897; source: synthetic peptide (Genscript)
B2: JIP3 889-903 (peptide)
peptide: SQSTEEATEATEVPD
notes: JIP3, residues 889-903; source: synthetic peptide (Genscript)
B3: His-RILPL1 391-403 (peptide)
peptide: GSGYTEQGQEALQHL
notes: linker after the His6 tag; also called His-tagged RILPL1 peptide; source: synthetic peptide (Genscript); not shown: His6, N-terminal, kept
B4: WDR81 657-668 (peptide)
peptide: DDLEQATEALDS
notes: WDR81, residues 657-668; source: synthetic peptide (Genscript)
B5: OCRL-PH domain (as used in ITC) (domain or fragment, UniProt Q01968 1-119, looked up)
chain: MEPPLPVGAQPLATVEGMEMKGPLREPCALTLAQRNGQYELIIQLHEKEQHVQDIIPINSHFRCVQEAEETLLIDIASNSGCKIRVQGDWIRERRFEIPDEEHCLKFLSAVLAAQKAQS
notes: OCRL, PH domain; residues 1-129 are stated for the His-tagged variant of the pull-down; Probably the construct of m14; source: E. coli, purified (protocol similar to that of TMEM55B, no ZnCl2 added)
B6: TMEM55B (80-166), untagged, wild type (domain or fragment)
chain: not shown
notes: N-terminal peptide left from the pET15b expression vector; TMEM55B, residues 80-166; numbers count on: UniProt Q86T03 isoform 2 (284 residues); also called WT TMEM55B region 80-166; source: E. coli BL21(DE3), purified (Ni-NTA, thrombin, second Ni-NTA, gel filtration)
B7: His-JIP4 887-897 (peptide)
peptide: GSTAEEATEATEG
notes: linker after the His6 tag; JIP4, residues 887-897; also called His-tagged JIP4 peptide; source: synthetic peptide (Genscript); not shown: His6, N-terminal, kept
B8: His-WDR81 657-668 (peptide)
peptide: GSDDLEQATEALDS
notes: linker after the His6 tag; WDR81, residues 657-668; also called His-tagged WDR81 peptide; source: synthetic peptide (Genscript); not shown: His6, N-terminal, kept
B9: RILPL1 391-403 peptide (peptide)
peptide: GYTEQGQEALQHL
notes: also called RL1pep; RILPL1 peptide; source: synthetic peptide (Genscript)

Several values for one entry are separate records, joined by “and”; a condition that tells them apart may be missing. Identical values can stand only once.

T2 sequence (Q86T03 73-153): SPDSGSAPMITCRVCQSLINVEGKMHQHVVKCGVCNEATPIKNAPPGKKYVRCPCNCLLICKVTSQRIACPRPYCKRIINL

The first assay addresses T2, TMEM55B (80-160) (UniProt Q86T03-2 80-160).
T2 construct: TMEM55B, residues 80-160; numbers count on: UniProt Q86T03 isoform 2; source: E. coli, purified
Description: ITC; peptide or OCRL PH domain injected into the cell with TMEM55B_(80-160); ITC200; Tris-HCl, 150mM NaCl, 1mM DTT, pH 7.5; single binding mode. As to conditions: both partners purified. (In ITC the heat of successive injections is recorded.)
Take B1: the dissociation constant Kd was 2900 nM and 2200 nM and 3100 nM; the dH was -8.9 kcal/mol and -9.7 kcal/mol and -8.7 kcal/mol; the “stoichiometry N” value was 1 and 0.91 and 0.78.

For B2, the Kd is 127 nM and 126 nM and 103 nM; the dH is -8.2 kcal/mol and -9.3 kcal/mol; the “stoichiometry N” value was 1.2 and 0.99 and 1.1.

In the case of B3, the Kd was 680 nM and 590 nM and 1000 nM; the dH is -11.4 kcal/mol and -12.1 kcal/mol and -13.6 kcal/mol; the “stoichiometry N” value was 0.87 and 0.95.

Take B4: the Kd was 20 nM and 33 nM and 12 nM; the dH was -9 kcal/mol and -9.1 kcal/mol and -8.7 kcal/mol; the “stoichiometry N” value is 0.94 and 1.1.

Consider B5, for which the dH was -5.3 kcal/mol and -5.9 kcal/mol and -6.7 kcal/mol; the “stoichiometry N” value is 0.69 and 0.86 and 0.68.

The target of another assay is T1, His-tagged PH domain of OCRL (1-129). As to the kind of experiment: pull-down; 10μM His-tagged peptide or His-tagged OCRL PH domain as bait on Ni2+-agarose, 10μM untagged TMEM55B as prey; 20 mM Tris pH 8.0, 300 mM NaCl, 20mM imidazole, 10 mM β-mercaptoethanol; Coomassie. The note with it: both partners purified.
For the molecule B6, the binding result is “binds”.

Another assay addresses B6. The assay is described as above. As to conditions: both partners purified.
Regarding B7, the binding result is “binds”.

As for B8, the binding result was “binds”.

Another assay deals with B6. As to the kind of experiment: SEC-MALS; Superdex75 10/300 GL, 1-1.5 mg/mL, TMEM55B_(80-166) alone or with RILPL1 peptide. The note with it: both partners purified. (In general: Size exclusion chromatography separates by hydrodynamic size, large species first.)
As for B9, the “stoichiometry N” value was determined as 1.

One may read the Kd as the free concentration of one partner at which half of the binding sites on the other are occupied at equilibrium, for simple one-to-one binding. High values mean lower affinity, low ones higher affinity. One may read the stoichiometry N as a count of units in the complex or per binding partner.
